Publication PMC8998314, “MYB2 Is Important for Tapetal PCD and Pollen Development by Directly Activating Protease Expression in Arabidopsis”

T1: HIS-MYB2 (Arabidopsis thaliana, UniProt Q39028 1-273)
T1 sequence: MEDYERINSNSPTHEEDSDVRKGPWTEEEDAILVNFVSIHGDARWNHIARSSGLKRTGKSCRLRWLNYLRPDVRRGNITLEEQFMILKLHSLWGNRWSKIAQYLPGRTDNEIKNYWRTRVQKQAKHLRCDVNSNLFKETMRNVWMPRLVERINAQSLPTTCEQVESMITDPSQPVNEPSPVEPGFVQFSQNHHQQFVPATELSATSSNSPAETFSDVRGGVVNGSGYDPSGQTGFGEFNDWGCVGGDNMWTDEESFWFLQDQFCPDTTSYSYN


Target: T1, HIS-MYB2
Assay: EMSA; EMSA binding buffer (Beyotime Chemiluminescent EMSA kit, composition and pH not stated), 30 min at 25 °C
Conditions: protein: recombinant; tags: His (pET-30a); label: biotin

Row | Binder | binding result
1 | CEP1 short probe with TAACTG (dsDNA) DNA 1: TTAGACAACAGTTATTGTAATG DNA 2: CATTACAATAACTGTTGTCTAA | binds
2 | CEP1 short probe(s) with AAACCA (dsDNA) DNA 1: GCTCCTGAAAACCATAATCAGA DNA 2: TCTGATTATGGTTTTCAGGAGC | binds
